# Measured values from patent publication US8722896B2, “Prokineticin receptor antagonists and uses thereof” (The Regents of the University of California, priority 2008, dated 2014).
# B1: PK2: "Mature human prokineticins (PK1 and PK2) contain 86 and 81 amino acids, respectively"; "recombinant PK2" used as agonist (protein, UniProt Q9HC23 28-129, looked up)
# Prokineticin-2: AVITGACDKDSQCGGGMCCAVSIWVKSIRICTPMGKLGDSCHPLTRKNNFGNGRQERRKRKRSKRKKEVPFFGRRMHHTCPCLPGLACLRTSFNRFICLAQK
# How the values were obtained:
# [1] = PK2 administration in GTT, wild type mice; assay type: in vivo; conditions: 10 nmol/kg and 200 nmol/kg, wild type mice (FIG. 8)
# Experimental: The compound (3R)-1-Benzyl-N-(9-chloro-3,4-dihydro-2H-1,5-benzodioxepin-7-ylmethyl)-N-isobutyl pyrrolidine-3-carboxamide (3Cl-R-PLP) was dissolved in PEG-400 and then resuspended in water with 8% final concentration of PEG-400.8% PEG-400 in water without drug was used as vehicle. Mice were fed with regular chow. Drug or vehicle was gavaged to mice that were fasted overnight. Two hours later, glucose (2 g/kg of body weight) was injected i.p. and whole venous blood obtained from the tail vein at 0, 15, 30, 90 and 120 min after the injection was measured for glucose by using an automatic glucometer (one Touch, Lifescan, Daly, Calif.).
# The inventors next tested the effect of PK2 administration on the performance of GTT test in wild type mice. […] This is consistent with observations that PK2-deficient mice have enhanced glucose clearance abilities.
# [2] = system: MIN6 cells; assay: Glucose-stimulated insulin secretion in MIN6 cells; assay type: cell-based; conditions: 15 mM glucose, PK2 added (FIG. 12A)
# Text: (§1) To investigate the direct effects of PK2 on the insulin secretion, the inventors performed a glucose-stimulated insulin secretion on β-cell like MIN6 cells. […] To specifically test the effects of endogenous PK2, the inventors treated MIN6 cells with 4Ind-3Cl-R-BMA along with low and high concentrations of glucose. […] As PK2 receptors have been reported coupling to Gi or Gq proteins, the inventors examined the possible signaling transduction of PK2 receptor in MIN6 cells.
# [3] = system: MIN6 cells; assay: Cytosolic calcium mobilization in MIN6 cells; assay type: cell-based
# Text: as §1
# [4] = system: MIN6 cells; assay: Forskolin-induced cAMP levels in MIN6 cells; assay type: cell-based; conditions: PK2 (FIG. 12C)
# Text: as §1
# [5] = Glucose-induced insulin secretion in vivo after PK2 administration; design: species or system mice; conditions: glucose i.p., 30 min (FIG. 10)
# Text: To understand whether insulin is directly involved, the inventors examined whether PK2 and/or its two cognate receptors, PKR1 and PKR2, are expressed in pancreas beta cells. […] The inventors tested whether this glucose-induced insulin secretion was inhibited by PK2. […] Consistent with the inhibitory effect of PK2 on insulin secretion, PK2-deficient mice have increased circulating insulin level. It is likely that at least some of glucose-lowering effects of PK2 antagonists were due to their abilities to increase insulin secretion as depicted in FIG. 11.
molecule,measurement,setting,value
B1,rate of glucose clearance in GTT,[1],significantly reduced the rate of glucose clearance
same,insulin secretion induced by glucose,[2],significantly suppressed the insulin secretion
same,cytosolic calcium mobilization,[3],didn't elicit cytosolic calcium mobilization
same,forskolin-induced cAMP levels,[4],significantly inhibited forskolin-induced cAMP levels
same,glucose-induced elevation of circulating insulin,[5],significantly inhibited glucose-induced elevation of insulin in circulation
